These results are taken from paper PMC11109316, “In vivo neutralization of coral snake venoms with an oligoclonal nanobody mixture in a murine challenge model” (Nature Communications, 2024).

B1: TPL0629_01_A07 (VHH)
VHH: QVQLQESGGGLVQAGGSLRLSCTASEGTVSYSTVGWFRQAPGGGRDLVAQSGSSDEDTHVAGSVKGRFTISRDNTNNTVYLQMSSLKPEDSAVYYCAAAPGDQYKYWGQGTQVTVSS
notes: also called anti-αNTx VHH
B2: TPL0629_01_G06 (VHH)
VHH: QVQLQESGGGLVQAGGSLRLSCAASGRAFSSYTMGWFRQAPGDMRELVAQITSSGSSTYHIDSVEGRFAISRDNAKNTVYLQMNSLQPEDAAIYYCAGGLNAYQYWGQGTQVTVSS
notes: also called anti-αNTx VHH
B3: TPL0629_01_D11 (VHH)
VHH: QVQLQESGGGLVQAGGSLRLSCAGSGDALGSYTMGWFRQAPGGGRDLVAQISVDGSSTYHLDSVRGRFTASRDNAKNTVYLEMNSLNSEDTAVYYCAAAPLLRGNYDYWGQGTQVTVSS
notes: also called anti-αNTx VHH; monovalent VHH

The target of this assay is T1, α-cobratoxin (Naja kaouthia, UniProt P01391).
T1 construct: also called long chain αNTx from Naja kaouthia; source: bought: Latoxan
The assay is described as follows: DELFIA (dose-response, capture format). The note with it: both partners purified.
For B1, the binding result is listed as “no binding (tested: 1 µM)”.
In the case of B2 it was “no binding (tested: 1 µM)”; in that of B3, “no binding (tested: 1 µM)”.
